The numbers were not newly measured in patent US20090098130A1, “GLUCAGON-LIKE PROTEIN-1 RECEPTOR (GLP-1R) AGONIST COMPOUNDS” (priority 2007, published 2009), which cites them from elsewhere.

The conditions of this series: after incubation with β-diketone.

B1: m38C2 IgG: mouse monoclonal aldolase antibody with a reactive lysine (antibody, listed as Mus musculus, V domains shown)
VH: EVKLVESGGGLVQPGGTMKLSCEISGLTFRNYWMSWVRQSPEKGLEWVAEIRLRSDNYATHYAESVKGKFTISRDDSKSRLYLQMNSLRTEDTGIYYCKTYFYSFSYWGQGTLVTVSA
VL: DVVMTQTPLSLPVRLGDQASISCRSSQSLLHTYGSPYLNWYLQKPGQSPKLLIYKVSNRFSGVPDRFSGSGSGTDFTLRISRVEAEDLGVYFCSQGTHLPYTFGGGTKLEIK
modifications: (1)..(30) FR1; (1)..(23) FR1
Take B1: the “enaminone absorbance (λmax=318 nm)” value is “showed the characteristic enaminone absorbance”.

B2: h38C2 IgG: humanized aldolase catalytic antibody h38c2 IgG1 (antibody, listed as Homo sapiens, V domains shown)
VH: EVQLVESGGGLVQPGGSLRLSCAASGFTFSNYWMSWVRQSPEKGLEWVSEIRLRSDNYATHYAESVKGRFTISRDNSKNTLYLQMNSLRAEDTGIYYCKTYFYSFSYWGQGTLVTVSS
VL: ELQMTQSPSSLSASVGDRVTITCRSSQSLLHTYGSPYLNWYLQKPGQSPKLLIYKVSNRFSGVPSRFSGSGSGTDFTLTISSLQPEDFAVYFCSQGTHLPYTFGGGTKVEIK
modifications: (1)..(30) FR1; (1)..(23) FR1
On to B2, for which the “enaminone absorbance (λmax=318 nm)” value is reported as “showed the characteristic enaminone absorbance”.
